# According to the supplement of paper PMC6379048:
# Assays:
# Assay in all cases: EC50 of free RNA motif oligo competing protein binding to immobilised probe
# ZC3HAV1 = ZC3HAV1 (UniProt Q7Z2W4)
# Experimental: (§1)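 Competition-binding assay: HEK293-FT cell lysate (2.5 mg protein) pre-incubated 1 h at 4°C with free motif-containing RNA oligos (0 to 30 µM, 12 doses), then pulled down with the same 5'-amino-C6 RNA oligos immobilised on NHS-Sepharose beads (30 min, 4°C). Bound proteins were quantified by label-free LC-MS/MS and normalised to the water control. EC50 came from a four-parameter log-logistic fit; Kd = EC50 x depletion factor. Random/reversed control probes are dropped.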
# XRN2 = target: T1, XRN2 (UniProt Q9H0D6)
# T1 sequence: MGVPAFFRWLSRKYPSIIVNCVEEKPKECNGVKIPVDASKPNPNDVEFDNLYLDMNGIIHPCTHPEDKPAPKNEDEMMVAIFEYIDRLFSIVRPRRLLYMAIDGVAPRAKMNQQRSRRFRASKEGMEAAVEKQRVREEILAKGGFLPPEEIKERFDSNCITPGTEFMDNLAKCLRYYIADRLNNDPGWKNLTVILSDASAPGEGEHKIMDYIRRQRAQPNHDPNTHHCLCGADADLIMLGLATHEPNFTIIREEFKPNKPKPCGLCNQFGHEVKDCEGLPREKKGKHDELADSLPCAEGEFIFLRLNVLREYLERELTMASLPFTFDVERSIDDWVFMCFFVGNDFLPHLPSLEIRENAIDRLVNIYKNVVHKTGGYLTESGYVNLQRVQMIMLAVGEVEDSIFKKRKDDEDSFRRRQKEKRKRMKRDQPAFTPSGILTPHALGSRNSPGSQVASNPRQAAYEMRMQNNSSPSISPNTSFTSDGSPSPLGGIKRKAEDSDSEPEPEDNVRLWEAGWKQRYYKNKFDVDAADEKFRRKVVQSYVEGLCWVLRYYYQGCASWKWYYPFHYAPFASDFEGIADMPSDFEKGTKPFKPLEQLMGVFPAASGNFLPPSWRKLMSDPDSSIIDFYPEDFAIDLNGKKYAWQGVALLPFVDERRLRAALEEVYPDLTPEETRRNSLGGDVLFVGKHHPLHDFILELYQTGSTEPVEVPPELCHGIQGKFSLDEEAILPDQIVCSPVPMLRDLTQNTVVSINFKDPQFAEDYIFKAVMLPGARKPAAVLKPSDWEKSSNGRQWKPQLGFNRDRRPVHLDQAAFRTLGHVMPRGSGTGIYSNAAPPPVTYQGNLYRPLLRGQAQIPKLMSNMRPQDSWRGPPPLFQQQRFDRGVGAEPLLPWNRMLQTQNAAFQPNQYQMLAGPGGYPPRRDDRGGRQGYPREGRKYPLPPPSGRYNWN
# Experimental: as §1
# DHX36 = target: T2, DHX36 (UniProt Q9H2U1)
# T2 sequence: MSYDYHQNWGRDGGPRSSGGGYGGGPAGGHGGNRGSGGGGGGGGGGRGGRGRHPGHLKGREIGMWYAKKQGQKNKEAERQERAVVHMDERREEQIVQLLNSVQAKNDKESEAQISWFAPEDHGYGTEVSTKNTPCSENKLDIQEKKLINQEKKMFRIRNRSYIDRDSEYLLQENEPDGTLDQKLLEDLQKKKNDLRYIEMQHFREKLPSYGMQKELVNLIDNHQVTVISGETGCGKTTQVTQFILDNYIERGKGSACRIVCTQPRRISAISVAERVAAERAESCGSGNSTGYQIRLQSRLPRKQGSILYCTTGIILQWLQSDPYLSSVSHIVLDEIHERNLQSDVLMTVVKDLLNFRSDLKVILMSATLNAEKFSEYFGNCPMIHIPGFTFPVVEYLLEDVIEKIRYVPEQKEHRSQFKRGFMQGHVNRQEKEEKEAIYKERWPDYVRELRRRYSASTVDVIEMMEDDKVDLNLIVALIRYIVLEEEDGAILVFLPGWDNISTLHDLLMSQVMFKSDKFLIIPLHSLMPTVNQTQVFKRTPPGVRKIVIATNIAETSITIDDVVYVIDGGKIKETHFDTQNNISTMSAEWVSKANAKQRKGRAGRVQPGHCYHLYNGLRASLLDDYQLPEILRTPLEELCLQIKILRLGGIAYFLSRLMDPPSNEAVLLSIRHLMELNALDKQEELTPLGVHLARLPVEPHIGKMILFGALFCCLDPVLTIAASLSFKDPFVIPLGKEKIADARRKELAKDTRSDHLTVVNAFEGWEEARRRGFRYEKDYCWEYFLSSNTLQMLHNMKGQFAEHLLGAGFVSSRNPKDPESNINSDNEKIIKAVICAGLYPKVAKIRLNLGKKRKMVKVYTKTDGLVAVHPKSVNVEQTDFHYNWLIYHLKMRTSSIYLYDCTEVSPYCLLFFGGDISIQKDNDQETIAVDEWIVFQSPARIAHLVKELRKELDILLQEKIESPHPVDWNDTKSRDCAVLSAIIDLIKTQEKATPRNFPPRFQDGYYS
# Experimental: as §1
# Chain of ZC3HAV1 (Q7Z2W4 whole entry): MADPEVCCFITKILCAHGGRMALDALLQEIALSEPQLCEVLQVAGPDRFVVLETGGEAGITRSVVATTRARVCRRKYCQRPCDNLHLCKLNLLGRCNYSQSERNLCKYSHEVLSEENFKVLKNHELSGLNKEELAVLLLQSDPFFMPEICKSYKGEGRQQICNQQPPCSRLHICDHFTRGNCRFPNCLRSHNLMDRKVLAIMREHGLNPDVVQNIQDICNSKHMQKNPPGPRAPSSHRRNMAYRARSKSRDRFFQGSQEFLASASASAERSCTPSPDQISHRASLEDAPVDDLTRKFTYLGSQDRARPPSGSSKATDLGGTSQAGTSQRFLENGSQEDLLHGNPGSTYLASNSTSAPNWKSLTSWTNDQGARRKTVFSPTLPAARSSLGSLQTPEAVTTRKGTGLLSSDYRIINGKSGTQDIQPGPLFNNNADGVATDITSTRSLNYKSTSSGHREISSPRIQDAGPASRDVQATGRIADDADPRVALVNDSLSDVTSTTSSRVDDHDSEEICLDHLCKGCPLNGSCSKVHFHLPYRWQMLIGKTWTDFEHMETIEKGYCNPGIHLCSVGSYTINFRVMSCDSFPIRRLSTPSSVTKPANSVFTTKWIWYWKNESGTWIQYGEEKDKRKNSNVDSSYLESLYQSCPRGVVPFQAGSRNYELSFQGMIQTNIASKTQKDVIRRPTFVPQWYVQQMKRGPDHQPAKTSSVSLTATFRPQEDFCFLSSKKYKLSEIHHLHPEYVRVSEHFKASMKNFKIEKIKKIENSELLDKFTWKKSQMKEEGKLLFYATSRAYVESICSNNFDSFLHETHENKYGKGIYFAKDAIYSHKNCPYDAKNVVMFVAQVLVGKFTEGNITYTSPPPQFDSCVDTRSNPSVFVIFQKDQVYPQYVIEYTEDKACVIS
Sequence,EC50 (ZC3HAV1),EC50 (XRN2),EC50 (DHX36)
AAUAAA,3900 nM,843 nM,3290 nM
CUGUCCU,1320 nM,147 nM,5030 nM
UAUUUAU,5380 nM,409 nM,1010 nM
